For one data set, the target named is T1, SND1 (1-660) (UniProt Q78PY7 1-660).
T1 sequence: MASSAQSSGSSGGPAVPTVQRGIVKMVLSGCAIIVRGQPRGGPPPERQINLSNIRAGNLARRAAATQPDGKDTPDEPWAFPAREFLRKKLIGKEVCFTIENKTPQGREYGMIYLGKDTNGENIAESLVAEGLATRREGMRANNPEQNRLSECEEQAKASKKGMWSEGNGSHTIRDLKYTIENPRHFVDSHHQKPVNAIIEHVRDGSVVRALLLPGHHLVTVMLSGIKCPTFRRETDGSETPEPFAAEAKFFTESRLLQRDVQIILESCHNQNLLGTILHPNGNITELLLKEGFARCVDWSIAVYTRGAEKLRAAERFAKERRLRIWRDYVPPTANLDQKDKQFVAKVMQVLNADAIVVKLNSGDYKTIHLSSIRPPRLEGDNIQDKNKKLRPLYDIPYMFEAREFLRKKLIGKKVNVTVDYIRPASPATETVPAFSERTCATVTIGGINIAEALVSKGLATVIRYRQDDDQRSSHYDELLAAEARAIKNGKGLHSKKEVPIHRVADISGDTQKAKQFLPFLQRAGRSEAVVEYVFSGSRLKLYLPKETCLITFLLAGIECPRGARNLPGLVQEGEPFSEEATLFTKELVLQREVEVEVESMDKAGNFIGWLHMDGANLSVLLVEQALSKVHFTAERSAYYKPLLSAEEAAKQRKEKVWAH
In words: EMSA; SND1 alone; Beyotime GS009 chemiluminescent EMSA kit binding buffer (composition, salt and pH not given), 20 fmol biotin probe, 0.1 ug protein, 10 min at room temperature. The settings on record: protein: recombinant; label: biotin; blunt. (In EMSA bound probe runs differently from free probe, usually more slowly.)

For the next data set, the target named is T2, SRF (1-266) (UniProt P11831 1-266).
T2 sequence: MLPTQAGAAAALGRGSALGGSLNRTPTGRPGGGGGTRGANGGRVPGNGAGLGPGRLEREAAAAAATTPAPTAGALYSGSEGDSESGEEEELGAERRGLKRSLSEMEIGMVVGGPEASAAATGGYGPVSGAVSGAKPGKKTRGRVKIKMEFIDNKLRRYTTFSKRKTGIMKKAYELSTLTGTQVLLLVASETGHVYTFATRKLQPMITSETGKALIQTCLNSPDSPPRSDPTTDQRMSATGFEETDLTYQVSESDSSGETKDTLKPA
The data set can be described thus: EMSA; unlabeled probe (200-fold) diminished binding; Beyotime GS009 chemiluminescent EMSA kit binding buffer (composition, salt and pH not given), 20 fmol biotin probe, 0.1 ug protein, 10 min at room temperature. The settings on record: protein: recombinant; (GST fusions described); chain copies: 2; label: biotin; blunt.

B1: Fos CArG probe (dsDNA)
DNA 1: CCATATTAGGCCATATTAGGCCATATTAGGCCATATTAGGCCATATTAGG
DNA 2: CCTAATATGGCCTAATATGGCCTAATATGGCCTAATATGGCCTAATATGG
As to B1, the binding result with SND1 (1-660) was “no binding”; with SRF (1-266), “binds”.

The record behind these values is article PMC10817852, “Vascular injury activates the ELK1/SND1/SRF pathway to promote vascular smooth muscle cell proliferative phenotype and neointimal hyperplasia”.
